From US20160193296A1, “METHODS FOR TREATMENT OF MICROCEPHALY ASSOCIATED AUTISM DISORDERS” (BROWN UNIVERSITY, priority 2012, published 2016) come the findings set out here.

For experiment [1], the system named is NHE6 mutant hippocampal neurons. The experiment can be described thus: Axonal and dendritic branching of cultured hippocampal neurons with exogenous BDNF. It counts as cell-based, mouse. The protocol: (§1) Hippocampi were dissected from P0-P1 mice, dissociated with papain (20 units/ml) in Earle's Balanced Salt Solution (EBSS) with bicarbonate at 37° C. for 30 min and triturated with a 1 ml pipette. Hippocampal neurons were placed on 8-well chamber slides coated with 1 mg/ml poly-D-lysine at a cell density of 3×10^5 cells/ml. For neuronal morphology, neurons at 1 DIV were transfected with EGFP constructs or together with testing constructs at a ratio of 1:1 using Lipofectamine 2000 (Invitrogen) according to manufacturer guidelines. For LysoTracker experiments, GFP transfected neurons at 5 DIV were incubated with 100 nM Lysotracker Red DND-99 at 37° C. for 30 min. After washing with PBS for 3 times, cells were imaged live or cells were fixed with 4% paraformaldehyde for 15 min and Z-series images were obtained under a Zeiss LSM710 confocal laser scanning microscope.
Images of cultured hippocampal neurons (2 DIV) were captured from randomly chosen fields on a Zeiss LSM710 confocal laser scanning microscope, blinded to genotypes, and traced using Metamorph Neurite Outgrowth software. The number of processes (i.e., neurites emanating directly from the cell body) per cell, the total number and total cumulative length of all neurite branches per cell and the length of the longest neurite per cell were determined. Z-series images of individual GFP-filled neurons at 5 DIV were obtained on a Carl Zeiss 710 confocal microscope and traced manually using Neurolucida software. Quantification of the branch number and total length of axons and dendrites per cell was done on images acquired with 20× objective. Quantitative analysis for LysoTracker red labeled endosomes was performed by using Neurolucida in images acquired with 63× objective. LysoTracker red puncta that completely overlapped with GFP-labeled dendrites or axons were scored as co-localized endosomes. Each experiment was performed on at least three different batches of cultured neurons.
Taken together our data support a model wherein due to loss of NHE6 there is an abnormal acidification of early endosomes resulting in impoverished branching as a result of decreases in BDNF/TrkB signaling. Given this model, we predicted that exogenous and high levels of BDNF may rescue the branching defects through enhancing TrkB signaling. To investigate the ability of exogenous BDNF to interact and improve the cellular phenotype seen, we added BDNF (50 ng/ml) to wild-type and mutant cultures at 2 DIV and examined cultures on day 5 for effects on axonal and dendritic branching associated with NHE6 mutation. […] We saw effects on both branching as well as an increase in the number of primary dendrites. […]

The test system of the next experiment is TrkB receptor. Briefly: Western blot of TrkB receptor and phospho-Trk levels after BDNF in hippocampal cultures at 4 DIV. It counts as cell-based, mouse. As to conditions: for TrkB receptor level normalized to time of BDNF administration: 50 ng/ml BDNF for 30 min. The protocol:
as §1
Next, we examined directly the levels of TrkB receptor in response to signaling. TrkB is well-known to be endocytosed upon binding BDNF and a significant degree of signaling has been proposed to occur within signaling endosomes upon endocytosis. […] To test this hypothesis, we examined TrkB receptor levels and phospho-Trk levels in response to BDNF signaling in NHE6 mutant and wild type hippocampal cultures at 4 DIV.

The mark [2] stands for this setting: NHE6 mutant neurons, BDNF 50 ng/ml added at 2 DIV, examined on day 5.

B1: BDNF: secreted protein, member of the neurotrophin family of growth factors; binds to the TrkB receptors (protein)
chain: HSDPARRGELSVCDSISEWVTAADKKTAVDMSGGTVTVLEKVPVSKGQLKQYFYETKCNPMGYTKEGCRGIDKRHWNSQCRTTQSYVRALTMDSKKRIGWRFIRIDTSCVCTLTIKRGR
On to B1, for which the “rescue of branching defects (in words)” value in experiment [1] (NHE6 mutant cells, BDNF 50 ng/ml, 2 DIV to day 5) is “increased both axonal and dendritic branching in mutant cells to a level approaching wild-type levels”. Besides, in experiment [1] (setting [2]), the axonal branching was 27.7+/−2.0 branch points per cell, the dendritic branching was 34.4+/−2.4 branches per cell and the primary dendrites was 8.7+/−0.4 dendrites. The “TrkB receptor level normalized to time of BDNF administration” value in the experiment on TrkB receptor (NHE6 mutant neurons) is listed as 0.79+/−0.04. Further, the “TrkB receptor level in mutant neurons as % of the control” value in the experiment on TrkB receptor (mutant/WT, 50 ng/ml BDNF, 30 min) turned out to be 76.5%. The “TrkB receptor level in mutant neurons as % of wild type” value with TrkB receptor (mutant/WT, 50 ng/ml BDNF, 60 min) is reported as 73.3%. Besides, the “TrkB receptor level in mutant neurons as % of wild type” value in the experiment with TrkB receptor (mutant/WT, 50 ng/ml BDNF, 2 h) turned out to be 74.9%. Moreover, the “induction of phospho-Trk in mutant compared to control” value with TrkB receptor (mutant/WT, after adding BDNF, throughout the whole treatment duration) is “approximately 48%”. Moreover, the “TrkB receptor level normalized to time of BDNF administration” value in the experiment on TrkB receptor (wild type neurons) was 1.03+/−0.06.
